Drawing on patent US20070020717A1, this text covers EC50 for one molecule.

What all share (conditions): chains peptide; modification not given
Assay [1] addresses T1, GST-PDZ fusion protein, PDZ domain of MAST2 (Accession no. AB047005), Q6P0Q8.
T1 chain: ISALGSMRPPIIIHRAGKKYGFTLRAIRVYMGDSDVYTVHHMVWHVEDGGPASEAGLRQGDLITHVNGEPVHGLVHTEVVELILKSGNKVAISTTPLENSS
Description: ELISA (G Assay). On the technique in general: An ELISA detects its analyte on a solid surface through an enzyme-linked reagent.

In assay [2] the target is T2, GST-PDZ fusion protein, PDZ domain of SHANK2 (GID 6049185), Q9UPX8.
T2 chain: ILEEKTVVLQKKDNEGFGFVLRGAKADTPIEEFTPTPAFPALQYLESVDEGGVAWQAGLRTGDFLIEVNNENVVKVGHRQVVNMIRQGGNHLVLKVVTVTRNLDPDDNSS
Description: ELISA.

For assay [3], the target named is T3, GST-PDZ fusion protein, PDZ domain of SHANK1 (GID 7025450), D3YZU1.
T3 chain: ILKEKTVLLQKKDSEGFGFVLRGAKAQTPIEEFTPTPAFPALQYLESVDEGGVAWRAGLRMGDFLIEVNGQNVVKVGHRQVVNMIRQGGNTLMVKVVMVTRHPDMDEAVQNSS
Description: ELISA.

RRRSGLDDINPTVLLKERSTEL [Peptide 1957]: the EC50 (usually the concentration that produces a half-maximal response) amounted to 23.1 µM in assay [1], 62 µM in assay [2] and 66.3 µM in assay [3].
